This is an account of results in publication PMC9942953, “Merlin tumor suppressor function is regulated by PIP2-mediated dimerization” (PLOS ONE, 2023).

Series [1] deals with the molecule itself. Kind of series: co-IP; HEK 293T co-transfected with a GFP fusion and a NanoLuc fusion; lysis in TBS, 2 mM MgCl2, 0.5% NP-40; GFP-Trap_MA; ratio of bound to unbound luciferase activity normalised to GFP fluorescence.
Series [2] deals with T1, Merlin L64P, patient derived mutant, P35240.
T1 chain: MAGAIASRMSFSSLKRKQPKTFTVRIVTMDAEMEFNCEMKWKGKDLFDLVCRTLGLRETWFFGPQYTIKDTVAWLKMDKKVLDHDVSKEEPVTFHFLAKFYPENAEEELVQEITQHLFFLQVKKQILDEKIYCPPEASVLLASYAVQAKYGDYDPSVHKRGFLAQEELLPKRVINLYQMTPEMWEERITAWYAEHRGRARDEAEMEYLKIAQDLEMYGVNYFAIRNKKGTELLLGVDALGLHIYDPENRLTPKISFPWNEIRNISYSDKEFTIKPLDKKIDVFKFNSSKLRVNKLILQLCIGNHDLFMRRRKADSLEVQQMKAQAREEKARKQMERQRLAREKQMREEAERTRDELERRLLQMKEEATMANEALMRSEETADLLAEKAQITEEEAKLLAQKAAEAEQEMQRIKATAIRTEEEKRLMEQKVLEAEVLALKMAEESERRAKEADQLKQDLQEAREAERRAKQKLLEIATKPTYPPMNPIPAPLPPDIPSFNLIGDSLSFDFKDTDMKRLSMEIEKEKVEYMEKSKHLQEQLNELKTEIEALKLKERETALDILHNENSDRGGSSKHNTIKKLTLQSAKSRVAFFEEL
The series is described as above. The conditions noted are these: remark: other sources report otherwise.

B1: Merlin ΔN18, deletion of the N-terminal 18 amino acids (domain or fragment, UniProt P35240 19-595, looked up)
chain: PKTFTVRIVTMDAEMEFNCEMKWKGKDLFDLVCRTLGLRETWFFGLQYTIKDTVAWLKMDKKVLDHDVSKEEPVTFHFLAKFYPENAEEELVQEITQHLFFLQVKKQILDEKIYCPPEASVLLASYAVQAKYGDYDPSVHKRGFLAQEELLPKRVINLYQMTPEMWEERITAWYAEHRGRARDEAEMEYLKIAQDLEMYGVNYFAIRNKKGTELLLGVDALGLHIYDPENRLTPKISFPWNEIRNISYSDKEFTIKPLDKKIDVFKFNSSKLRVNKLILQLCIGNHDLFMRRRKADSLEVQQMKAQAREEKARKQMERQRLAREKQMREEAERTRDELERRLLQMKEEATMANEALMRSEETADLLAEKAQITEEEAKLLAQKAAEAEQEMQRIKATAIRTEEEKRLMEQKVLEAEVLALKMAEESERRAKEADQLKQDLQEAREAERRAKQKLLEIATKPTYPPMNPIPAPLPPDIPSFNLIGDSLSFDFKDTDMKRLSMEIEKEKVEYMEKSKHLQEQLNELKTEIEALKLKERETALDILHNENSDRGGSSKHNTIKKLTLQSAKSRVAFFEEL
notes: Merlin isoform 1 without its unique N-terminal 18 amino acids; source: HEK 293T, co-transfected, in lysate; not shown: NanoLuc (probe copy) or EGFP (bait copy), C-terminal, kept
As to B1, the “percent dimerization relative to wild type” value in series [1] amounted to 33%.

B2: Merlin L64P, patient derived mutant, P35240 1-595 (natural protein)
chain: MAGAIASRMSFSSLKRKQPKTFTVRIVTMDAEMEFNCEMKWKGKDLFDLVCRTLGLRETWFFGPQYTIKDTVAWLKMDKKVLDHDVSKEEPVTFHFLAKFYPENAEEELVQEITQHLFFLQVKKQILDEKIYCPPEASVLLASYAVQAKYGDYDPSVHKRGFLAQEELLPKRVINLYQMTPEMWEERITAWYAEHRGRARDEAEMEYLKIAQDLEMYGVNYFAIRNKKGTELLLGVDALGLHIYDPENRLTPKISFPWNEIRNISYSDKEFTIKPLDKKIDVFKFNSSKLRVNKLILQLCIGNHDLFMRRRKADSLEVQQMKAQAREEKARKQMERQRLAREKQMREEAERTRDELERRLLQMKEEATMANEALMRSEETADLLAEKAQITEEEAKLLAQKAAEAEQEMQRIKATAIRTEEEKRLMEQKVLEAEVLALKMAEESERRAKEADQLKQDLQEAREAERRAKQKLLEIATKPTYPPMNPIPAPLPPDIPSFNLIGDSLSFDFKDTDMKRLSMEIEKEKVEYMEKSKHLQEQLNELKTEIEALKLKERETALDILHNENSDRGGSSKHNTIKKLTLQSAKSRVAFFEEL
On to B2, for which the fold dimerization relative to wild type in series [2] was found to be 1.28 fold.
